{
  "source": "the DeepSol protein solubility set",
  "data": [
    {"assay": "soluble on expression in E. coli; label from the status in PepcDB or PDB records", "values": [
      {"sequence": "MAHHHHHHMALLVYLNNKQTHSFIAVRKSSSLLFSPGNFKAIYQRIYEHLNDQYEERGQLEAGEEILTVKPNVFAQNGVIDFDGVRKMWTSHIVPQLRRCVTGDHLANTTDNSVVSIEESAVFCDIGSGVGNVCLQLLAETNCRKVVGVEVIPSRHRAATTAFAKALSYFPENFSGKQAIFIQDDFVNCARRMVEENVNVIFTHSWMFDDELMKRLTELVVSLPALLCVVTSRPLHENLLVGSQMKLVSYVHLTADWNDEAPFFIYRKIT", "soluble on expression in E. coli": "not soluble"},
      {"sequence": "MSGEGMTAVSEPVQLTVPQMLAQLQGTDTSLRYYAAWWLGKFGLETATAAERQAIVSALIAALADEADRTELGGYPLRRNAARALGKLGDRQAVPALIECLRCEDFYVREAAAIALGQLGDPRAIAPLQSLLEGGVAMARLVPGRPHLVQPVEAVIESLGHLGATEAIALIEPFLAHEMPRVQFAAARALFQLTGDAVYGDRLLAALNSEDVQLRRTALLDLGAMGYLPAAEAILQAGVEASFKLIALHGILGQQLRQAAPAEQTLSLFQGLDQLLLEHHHHHH", "soluble on expression in E. coli": "soluble"},
      {"sequence": "MIAKHIDRFPLLKLDRVIDWQLIEQYLNRQKTRYLRDHRGRPAYPLLSMFKAVLLGQWHSLSDPELEHSLITRIDFNLFCRFDELSIPDYSTLCRYRNRLAQDNTLSELLELINRQLTEKGLKIEKASAAVVDATIIQTAGSKQRQAIEVDEEGQISGQTTPSKDSDARWIKKNGLYKLGYKQHTRTDAEGYIEKLHITPANAHECKHLSPLLEGLPKGTTVYADKGYDSAENRQHLEEHQLLDGIMRKAHRNRPLTEVQTKRNRYLSKTRYVVEQSFGTLHRKFRYARAAYFGLVKVSAQSHLKAMCLNLLKAANRLSAPAAA", "soluble on expression in E. coli": "not soluble"},
      {"sequence": "GSGPTYCWNEANNPGGPNRCSNNKQCDGARTCSSSGFCQGTSRKPDPGPKGPTYCWDEAKNPGGPNRCSNSKQCDGARTCSSSGFCQGTAGHAAA", "soluble on expression in E. coli": "soluble"},
      {"sequence": "MDLKGGESMVDWKLMQEIIEAPGVSGYEHLGIRDIVVDVLKEVADEVKVDKLGNVIAHFKGSSPRIMVAAHMDKIGVMVNHIDKDGYLHIVPIGGVLPETLVAQRIRFFTEKGERYGVVGVLPPHLRRGQEDKGSKIDWDQIVVDVGASSKEEAEEMGFRVGTVGEFAPNFTRLNEHRFATPYLDDRICLYAMIEAARQLGDHEADIYIVGSVQEEVGLRGARVASYAINPEVGIAMDVTFAKQPHDKGKIVPELGKGPVMDVGPNINPKLRAFADEVAKKYEIPLQVEPSPRPTGTDANVMQINREGVATAVLSIPIRYMHSQVELADARDVDNTIKLAKALLEELKPMDFTP", "soluble on expression in E. coli": "soluble"},
      {"sequence": "MEIINDAELIRSMQRQQHIDAELLTDANVRFEQPLEKNNYVLSEDETPCTRVNYISLDDKTVRKFSFLPSVLMKETAFKTGMCLGSNNLSRLQKAAQQILIVRGYLTSQAIIQPQNMDSGILKLRVSAGEIGDIRYEEKRDGKSAEGSISAFNNKFPLYRNKILNLRDVEQGLENLRRLPSVKTDIQIIPSEEEGKSDLQIKWQQNKPIRFSIGIDDAGGKTTGKYQGNVALSFDNPLGLSDLFYVSYGRGLAHKTDLTDATGTETESGSRSYSVHYSVPVKKWLFSFNHNGHRYHEATEGYSVNYDYNGKQYQSSLAAERMLWRNRLHKTSVGMKLWTRQTYKYIDDAEIEVQRRRSAGWEAELRHRAYLNRWQLDGKLSYKRGTGMRQSMPAPEENGGDILPGTSRMKIITASLDAAAPFILGKQQFFYATAIQAQWNKTPLVAQDKLSIGSRYTVRGFDGEQSLFGERGFYWQNTLTWYFHPNHQFYLGADYGRVSGESAQYVSGKQLMGAVVGFRGGHKVGGMFAYDLFAGKPLHKPKGFQTTNTVYGFNLNYSF", "soluble on expression in E. coli": "not soluble"},
      {"sequence": "MLKKMGEAVARVARKVNETVESGSDTLDLAECKLVSFPIGIYKVLRNVSGQIHLITLANNELKSLTSKFMTTFSQLRELHLEGNFLHRLPSEVSALQHLKAIDLSRNQFQDFPEQLTALPALETINLEENEIVDVPVEKLAAMPALRSINLRFNPLNAEVRVIAPPLIKFDMLMSPEGARAPLP", "soluble on expression in E. coli": "not soluble"},
      {"sequence": "MAELYYEDNRAYSYTQSFLKMFYLIFGQAYSRDYLSIDKYNKLCSNKDTKIHMPKLKIDEETNIVFFSKEEMQQLDNYFKGTNVETAYLLGKYCGLRINECFGLKWDKIDLKNGTITIDRQMQYQNGMIKLVPLKTRNAKRKIYMCSKLKEYFTNLMQQQEKYKTELAELRQQKQTLIKDIQGNTISSLELVNSMPIGRMQTVNAMKYHTRTLKEKYHIDFKYHYLRHTYGTTLATLNTPEHLLCNQMGHSSSSVTHKYYIGISKQGIDELLKNLERV", "soluble on expression in E. coli": "not soluble"},
      {"sequence": "SGKQPVKLKAVVYALSPFQQKIMTGLWKDLPEKIHHKVSENWISATLLVTPVVGTYWYAQYFKEQEKLEHRF", "soluble on expression in E. coli": "soluble"},
      {"sequence": "MSLCMEAVMNIGIYIYDEAEVLDFSGPFEVFSTAKRLGAGSWNVFLVSETLEPVKARGGFTVLPDYSFQNYPQIDLLIVVGGVHRNEMNKSNVLHWVASVDKHAKHIASVCTGAFILANAGLLKGLAVTTHWEDIPELKQRFPDLVVVEDKRWITASKYTTSGGISAGIDMSLFLVSKFHSQSHAELVAHQMEYNWQKCTEGGSHHHHHH", "soluble on expression in E. coli": "soluble"},
      {"sequence": "MEGLINALKYLAEHEPIDNFEEIRTRNSPIELPSGLSNFEQNIFLKENLSPKLQNDDSLKTHYWIIREWGGIKSFKQSAENSQLIRQFLSELNSGKLSSGLLKISSLSKLASFIDCERFAIYDSRAIFSLNWLLFKFTNADLFFQPQGRNRELEIRNMNVLFHFSDIKPNYRKPDVSFHQYCGLLQDLAKQVYGKQAKPYHIEMLLFKIATTWICADMDQLIKFDCLRNQDFQTA", "soluble on expression in E. coli": "not soluble"},
      {"sequence": "MKYQQLENLESGWKWKYLVKKHREGELITRYVEASAAQEAVNLLLALENEPVRVNVWIDRHMNPALLNRMKQTIRARRKRHFNAEHQHTRKKSIDLEFMVWQRLAGLAQRRGKTLSETIVQLIEDAEHKEKYATQMTTLKQDLQALLGKK", "soluble on expression in E. coli": "not soluble"},
      {"sequence": "MTFAWGRGSHGGAGMRIVQITDTHFSPTKAHFNGNWAPLAAWIEQSGADLVIHTGDLSVDGADRDDDIAFCMDLMREISAPMLLVPGNHDVGHLPGSLQPVNAGRLERWRRLVGPDYWMEDAGSWRLIGLDSLLMGFDDAEEEAQFDWLRTVLESRGGRRVALFAHKPLFVDAPGEGDTGYWSVRPAQRQRLYDLIATHDVALFASGHLHRAWQGKYENTSLVWGPSAALEHHHHHH", "soluble on expression in E. coli": "soluble"},
      {"sequence": "MKKTRTANLHHLYHEALPEDVKLTPRVEVDNVHQRRTTDVYEHALTITAWQQIYDQLHPGKFHGEFTEILLDEIQVFREYTGLALRQSCLVWPNSFWFGIPATRGEQGFIGAQGLGSAEIATRPGGTEFELSTPDDYTILGVVISEDVISRQATFLHNPERVLHMLRNQLALEVKEQHKAALWGFVQQALATFSESPETLHQPAVRKVLSDNLLLAMGTMLEEAKPIHSAESISHQGYRRLLSRAREYVLENMSEPLTVLDLCNQLHVSRRTLQNAFHAILGIGPNAWLKRIRLNAVRRELISPWSQSATVKDAAMQWGFWHLGQFATDYQQLFAEKPSLTLHQRMRQWA", "soluble on expression in E. coli": "not soluble"},
      {"sequence": "MAIDFNAMPPSTWAENLARNQLSKLQTQLDTQTKSAKARTDALSQLQKALQDYKSSLATLTGKKSLVAMNAAATPDGMASVTAKGNAAAGNYSVFVEQLASSQQ", "soluble on expression in E. coli": "not soluble"},
      {"sequence": "MLVDGKLVCVTGAGGYIASWIVKLLLERGYTVRGTVRNPTDPKNNHLRELQGAKERLTLHSADLLDYEALCATIDGCDGVFHTASPMTDDPETMLEPAVNGAKFVIDAAAKAKVKRVVFTSSIGAVYMNPNRDTQAIVDENCWSDLDFCKNTKNWYCYGKMLAEQSAWETAKAKGVDLVVLNPVLVLGPPLQSAINASLVHILKYLTGSAKTYANLTQVYVDVRDVALGHVLVYEAPSASGRYILAETALHRGEVVEILAKFFPEYPLPTKCSDEKNPRAKPYKFTTQKIKDLGLEFKPIKQSLYESVKSLQEKGHLPLPQDSNQNEVIIES", "soluble on expression in E. coli": "soluble"},
      {"sequence": "MSLEKMEDHFILCGYGLMGREIIKELPKDKVVVIDSDIGKVSAAREDGYVAVHGDATDDFTLEKAGIGKAKALICCMSDASNAFAILTAKELNPRIKTVAILRSPDAEKKMRRVGVDILLSPYRDAAKKIISLLSEKAVAEFVETVISGAKSLNLEKVVADEYMDGKTLRELDLRRRTGCIVVAVVRRGDVILPEADTRLEKGDILYILCSGEAPLELEGHHHHHH", "soluble on expression in E. coli": "soluble"},
      {"sequence": "KRKFACVECRQQKSKCDAHERAPEPCTKCAKKNVPCILKRDFRRTYKRARNEAIEKRFKELTRTLTNLTSDE", "soluble on expression in E. coli": "soluble"},
      {"sequence": "MGHHHHHHSHMKWASENGASVEGFEMVNFKEEGFGLRATRDIKAEELFLWVPRKLLMTVESAKNSVLGPLYSQDRILQAMGNIALAFHLLCERASPNSFWQPYIQTLPSEYDTPLYFEEDEVRYLQSTQAIHDVFSQYKNTARQYAYFYKVIQTHPHANKLPLKDSFTYEDYRWAVSSVMTRQNQIPTEDGSRVTLALIPLWDMCNHTNGLTPEDSFALAVASA", "soluble on expression in E. coli": "not soluble"},
      {"sequence": "MRGRWPYEEKPLIVFWESTKACLLACKHCRAEALTEPQPGELSTREALALVDQVVEFGRPYPILVITGGDPLMRRDFWRILEYAVSQGLRVAVAPSVTPLLTREVVRRMARMGVARISISIDSGLPEVHDAIRGVPGTFKASVNIVREALAAGLPVQINTTVMKPTVDSLPETLKLLLDLGVDVWEVFYVVPTGRAARILDLTPSEWEDVSNYLYDASRYGVLVRTVEGPMFRRIALTRRLLENMGLDWRNR", "soluble on expression in E. coli": "not soluble"},
      {"sequence": "MADSEADKPLRKISAAFKKLAIIVNSPNPEVPVTQFSHACSLVSPLFGCLGIAFKFAEMDYVAKVDDLVRASSSISTLVVMMDKDIEADCVRKAGSHTRNLLRVKRGLDMVKVLFEQIIASEGDNSLKDPATKSYAQVFAPHHGWAIRKAVSLGMYALPTRAHLLNMLKEDEAAAKIHMQSYVNSSAPLITYLDNLFLSKQLGIDW", "soluble on expression in E. coli": "not soluble"},
      {"sequence": "MGSDKIHHHHHHMQPRLVIAGTHSGVGKTTVTLGLMAAFVEKGNIVQGFKCGPDYIDPSYHRAVTKRASRNLDSWMVSEDVVNDIFIEGCNGADLSIIEGVMGFYDGKASTSDKGSTADISLLLQAPVLLVVDISGMARSAAAVVKGFQQLNEKVKIAGVILNGAGSERHAEMCSEAIKEACGIPALGYLKKGDVPSIPERHLGLVPALERGEHDSLFSQLAAVVSRQFDLERIERLALEASALSRRTNLFQQTKRPSVVKIAVAYDAAFHFYYEENFTLLRQAGAELVYFSPLRGEDLPSHCDGLYLGGGFPEEFADELSQWIKDHPQLKKRVQSGLPTLAECGGYMFLGEQLTTTKGKTVEMAGVIPMVVQMENKLVSLGYRDVTPLDDSFLLSKGQQIRGHEFHYSKAVYTETERPAYFVKGLFGEGKEGYMSDHLLAGYTHLHFASEPAVATQWVKACEVYKNRRLHRGQVSQ", "soluble on expression in E. coli": "not soluble"},
      {"sequence": "GPGSMSGAGNLRSNRRREMDYMRLCNSTRKVYPSDTVAEFWVEFKGPEGTPYEDGTWMLHVQLPSDYPFKSPSIGFCNRILHPNVDERSGSVCLDVINQTWTPMYQLENIFDVFLPQLLRYPNPSDPLNVQAAHLLHADRVGFDALLREHVSTHATPQKALESIPEAYRPHDNTHEEEPDEANAKDTASDGPVNAGHSKGLTDSSVTPTEDHRVMHDDIAIDGDEDVEAEYEPEEIDL", "soluble on expression in E. coli": "soluble"},
      {"sequence": "MKIALIGATGMAGSRILEELVSRGHYVKALARDTHKVADTERVMAVDIDLNDHDALVEALRGQDAVISAVRFHGLDANALFNAIHDSKVKRYLVVGGAGSLHVPHQNTRVLDSEDFPEAYKPEAEAAAHFLDKLKEKDDLDWTFISPSAEFGPGKRTGEFRLGKDELLVGEEGSKISAEDFAVALADELEHNNHIQQRFTVGYLEHHHHHH", "soluble on expression in E. coli": "not soluble"}
    ]}
  ]
}
